Assays:
cyclin B1-cdk1 complex = cyclin B1-cdk1 complex (UniProt P14635)
[1] = system: separase sensor, wild-type Scc1 (142-467), histone H2B localization-targeting sequence

cyclin B1-cdk1 complex, sequence (P14635 whole entry, looked up, one chain of several): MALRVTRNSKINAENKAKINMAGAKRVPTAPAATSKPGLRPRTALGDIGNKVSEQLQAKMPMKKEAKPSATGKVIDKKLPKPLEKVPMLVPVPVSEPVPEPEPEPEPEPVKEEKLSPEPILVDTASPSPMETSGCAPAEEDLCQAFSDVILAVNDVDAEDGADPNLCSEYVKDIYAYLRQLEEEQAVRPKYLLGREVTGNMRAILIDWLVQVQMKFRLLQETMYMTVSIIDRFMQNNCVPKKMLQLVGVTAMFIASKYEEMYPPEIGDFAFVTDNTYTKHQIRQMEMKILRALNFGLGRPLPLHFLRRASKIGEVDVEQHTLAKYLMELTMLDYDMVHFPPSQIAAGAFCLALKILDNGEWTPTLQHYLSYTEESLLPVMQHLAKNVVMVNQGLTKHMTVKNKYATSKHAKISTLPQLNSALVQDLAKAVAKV

Substance | cdk1 activity (histone H1 kinase assay) (cyclin B1-cdk1 complex) | kinase activity (histone H1 as a substrate) (cyclin B1-cdk1 complex) | cleavage of the sensor (immunoblot with anti-GFP antibody, FIG. 2D) [1]
myc-tagged mouse separase, wild-type (WT) | cdk1 activity was markedly inhibited in the separase-bound fraction | in the separase-bound fraction, kinase activity is inhibited (separase-bound cyclin B1-cdk1) | 
separase |  |  | The separase sensor localized in chromosome in the cells in anaphase is cleaved
